The target of one test is T1, human CCR1 (human) (UniProt P32246).
T1 sequence (looked up): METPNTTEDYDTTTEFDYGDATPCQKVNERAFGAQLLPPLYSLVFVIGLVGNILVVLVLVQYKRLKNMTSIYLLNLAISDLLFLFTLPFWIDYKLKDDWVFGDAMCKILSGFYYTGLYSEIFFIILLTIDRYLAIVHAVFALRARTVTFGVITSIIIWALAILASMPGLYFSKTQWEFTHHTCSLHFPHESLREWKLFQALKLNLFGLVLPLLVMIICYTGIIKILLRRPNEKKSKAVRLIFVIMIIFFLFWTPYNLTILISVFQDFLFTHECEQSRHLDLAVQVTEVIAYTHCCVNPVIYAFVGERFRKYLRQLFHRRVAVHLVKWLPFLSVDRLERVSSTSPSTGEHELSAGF
As to the kind of experiment: FACS on ExpiCHO-S-human CCR1 cells.

The target of another test is T2, human CCR4 (human) (UniProt P51679).
T2 sequence (looked up): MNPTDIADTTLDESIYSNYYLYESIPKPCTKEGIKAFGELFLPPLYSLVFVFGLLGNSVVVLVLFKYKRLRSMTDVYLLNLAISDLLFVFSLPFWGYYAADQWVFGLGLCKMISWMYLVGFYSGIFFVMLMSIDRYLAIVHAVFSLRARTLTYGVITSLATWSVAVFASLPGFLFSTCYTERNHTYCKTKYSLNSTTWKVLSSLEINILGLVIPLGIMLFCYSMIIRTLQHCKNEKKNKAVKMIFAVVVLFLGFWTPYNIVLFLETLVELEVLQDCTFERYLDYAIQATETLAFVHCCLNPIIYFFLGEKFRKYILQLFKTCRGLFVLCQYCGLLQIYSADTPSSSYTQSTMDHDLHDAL
As to the kind of experiment: FACS on ExpiCHO-S-human CCR4 cells.

A further test addresses human CCR8 (human) (UniProt P51685). As to the kind of experiment: cell-based or functional assay.

Numbering of substitutions follows the chain as printed.

human CCR8 (human), sequence (P51685 whole entry): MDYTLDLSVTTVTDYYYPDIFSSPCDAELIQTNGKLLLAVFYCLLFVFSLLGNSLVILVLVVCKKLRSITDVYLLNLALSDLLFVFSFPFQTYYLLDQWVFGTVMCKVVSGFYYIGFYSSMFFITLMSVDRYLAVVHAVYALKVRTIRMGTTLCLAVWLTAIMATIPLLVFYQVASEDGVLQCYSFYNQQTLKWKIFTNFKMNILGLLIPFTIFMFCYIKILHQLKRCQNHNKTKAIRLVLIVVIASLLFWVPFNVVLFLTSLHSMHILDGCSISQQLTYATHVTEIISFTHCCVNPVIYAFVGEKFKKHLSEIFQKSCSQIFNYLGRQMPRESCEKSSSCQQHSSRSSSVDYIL

B1: Hu149-9 (antibody, human IgG1, V domains shown)
VH: EVQLVESGGGLVQPGGSLKLSCAASGFTFNTYAMNWVRQASGKGLEWVGRIRSKSNFYATAYAASVKGRFTISRDDSKNTAYLQMNSLKTEDTAVYYCTRGRDYGSSYAMDYWGQGTLVTVSS
VL: DIVMTQSPLSLPVTPGEPASISCRSSKSLLHSNANTYLYWFLQKPGQSPQLLIYRMSNLASGVPDRFSGSGSGTDFTLKISRVEAEDVGVYYCMQHLEYPLTFGGGTKVELK
Take B1: the values for the Max MFI with human CCR1 (human) and with human CCR4 (human) were 226 MFI and 32.8 MFI, respectively.

B2: Hu149-12G1x (antibody, V domains shown, not shown: a dimerising Fc or GST)
VH: B1 VH with R102K, D103E
VL: B1 VL
Consider B2, for which, in the test with human CCR8 (human), the EC50, ADCC reporter, F variant CD16a/NFAT-Jurkat, target CHO-K1-human CCR8 cells is 2.99 pM; the EC50, ADCC reporter, F variant CD16a/NFAT-Jurkat, target HuT78 cells was found to be 4.28 pM; the EC50, ADCC reporter, V variant CD16a/NFAT-Jurkat, target CHO-K1-human CCR8 cells was determined as 5.05 pM; the EC50, ADCC reporter, V variant CD16a/NFAT-Jurkat, target HuT78 cells stood at 4.58 pM. In the test with human CCR8 (human), this molecule had an EC50, ADCC with human PBMCs, target CHO-K1-human CCR8 cells of 0.828 pM; a Max (RLU), ADCC reporter, F variant CD16a/NFAT-Jurkat, target CHO-K1-human CCR8 cells of 8.27e+06 RLU; a Max (RLU), ADCC reporter, F variant CD16a/NFAT-Jurkat, target HuT78 cells of 1.56e+07 RLU; a Max (RLU), ADCC reporter, V variant CD16a/NFAT-Jurkat, target CHO-K1-human CCR8 cells of 4.13e+06 RLU. In the test with human CCR8 (human), this molecule came in with a Max (RLU), ADCC reporter, V variant CD16a/NFAT-Jurkat, target HuT78 cells of 8.88e+06 RLU and a Max specific lysis (%), ADCC with human PBMCs, target CHO-K1-human CCR8 cells of 53%.

B3: CCL1 (CN-07, Almac) (ligand, UniProt P22362 24-96, looked up)
chain: KSMQVPFSRCCFSFAEQEIPLRAILCYRNTSSICSNEGLIFKLKRGKEACALDTVGWVQRHRKMLRHCPSKRK
In the test with human CCR8 (human), B3 showed a β-arrestin recruitment EC50 (CHO-K1 cells co-expressing PK-tagged human CCR8 and EA) of 288 pM.
